Columns and labels:
[1] = NADPH dependent DEHU hydrogenation assay (DEHU hydrogenase); format: biochemical; conditions: E. coli cell lysate containing each ADH; NADPH consumption at 340 nm for 30 min; FIG. 7A
Description: (§1) To identify DEHU hydrogenase, a NADPH dependent DEHU hydrogenation assay was performed. 20 μl of prepared cell lysate containing each ADH was added to 160 μl of 20-fold deluted DEHU solution prepared in the above section. 20 μl of 2.5 mg/ml of NADPH solution (20 mM Tris-HCl, pH 8.0) was added to initiate the hydrogenation reaction, as a preliminary study using cell Lysate of A. tumefaciens C58 have shown that DEHU hydrogenation requires NADPH as a co-factor. The consumption of NADPH was monitored an absorbance at 340 nm for 30 min using the kinetic mode of ThermoMAX 96 well plate reader (Molecular Devises). E. coli cell lysate containing alcohol dehydrogenase (ADH) 10 lacking a portion of N-terminal domain was used in a control reaction mixture.

[2] = NADH/NADPH production assay, oxidation of 4-octanol by secondary alcohol dehydrogenases; format: biochemical; conditions: 30° C.; for oxidation of 4-octanol as measured by NADPH production: in the presence of NADP+, FIG. 30B
Description: […] consumption and production assays were performed using a THERMOmax microplate reader in the kinetic mode, monitoring the NADPH absorbance peak at 340 nm until the reaction reached equilibrium. […] These reaction conditions are found in Table 4 below.

[3] = In vitro pyruvate formation from alginate with purified enzymes; conditions: ~5 ug purified enzyme with Atu3025, UxuA, KdgK, KdgA; 1% alginate or ~0.5% mannuronate; over night; FIG. 6B, 6C
Description: The reaction mixture contained 1% alginate or ˜0.5% mannuronate, ˜5 ug of purified Atu3026 (ADH12) or Atu3027 (ADH11), and ˜5 ug of purified oligoalginate lyase (Atu3025), UxuA, KdgK, and KdgA, 2 mM of ATP, and 0.6 mM of NADPH in 20 mM Tris-HCl pH7.0. The reaction was carried out over night and the pyruvate formation was monitored by the pyruvate assay kit (BioVision, Inc).

[4] = NADPH dependent D-mannuronate hydrogenation assay (D-mannuronate hydrogenase); format: biochemical; conditions: E. coli cell lysate containing each ADH; NADPH consumption at 340 nm for 30 min; FIG. 7B
Description: as §1, with “D-mannuronate” for “DEHU”, “D-mannuronate” for “20-fold deluted DEHU”, “reaction.” for “reaction, as a preliminary study using cell Lysate of A. tumefaciens C58 have shown that DEHU hydrogenation requires NADPH as a co-factor.”

| Molecule | oxidation of 4-octanol as measured by NADPH production [2] | mannuronate hydrogenase activity [4] | further results |
| --- | --- | --- | --- |
| ADH1: alcohol dehydrogenase isolated from Agrobacterium tumefaciens C58, polypeptide SEQ ID NO: 70 (protein, Agrobacterium tumefaciens C58) MFTTSAYACDDGSSPMKLATIRRRDPGPRDVEIEIEFCGVCHSDIHTARSEWPGSLYPCVPGHEIVGRVGRVGAQVTRFKTGDRVGVGCIVDSCRECASCAEGLEQYCENGMTGTYNSPDKAMGGGAHTLGGYSAHVVVDDRYVLNIPEGLDPAAAAPLLCAGITTYSPLRHWNAGPGKRVGVVGLGGLGHMAVKLANAMGATVVMITTSPGKAEDAKKLGAHEVIISRDAEQMKKATSSLDLIIDAVAADHDIDAYLALLKRDGALVQVGAPEKPLSVMAFSLIPGRKTFAGSMIGGIPETQEMLDFCAEKGIAGEIEMIDIDQINDAYERMIKSDVRYRFVIDMKSLPRQKAA | – | – | DEHU hydrogenase activity [1]: significant DEHU hydrogenase activity |
| 2ADH-10: secondary alcohol dehydrogenase isolated from Pseudomonas putida KT2440, SEQ ID NO: 128 (protein, Pseudomonas putida KT2440) MSKTHLFDLDGKIAFVSGASRGIGEAIAHLLAQQGAHVIVSSRKLDGCQQVADAIIAAGGKATAVACHIGELEQIQQVFAGIREQFGRLDVLVNNAATNPQFCNVLDTDPGAFQKTVDVNIRGYFFMSVEAGKLMRENGGGSIINVASINGVSPGLFQGIYSVTKAAVINMTKVFAKECAPFGIRCNALLPGLTDTKFASALVKNEAILNAALQQIPLKRVADPKEMAGAVLYLASDASSYTTGTTLNVDGGFLS | catalyze the oxidation of 4-octanol | – | – |
| 2ADH-2: secondary alcohol dehydrogenase isolated from Pseudomonas putida KT2440, SEQ ID NO: 112 (protein, Pseudomonas putida KT2440) MSMTFSGQVALVTGAGAGIGRATALAFAHEGMKVVVADLDPVGGEATVAQIHAAGGEALFIACDVTRDAEVRQLHERLMAAYGRLDYAFNNAGIEIEQHRLAEGSEAEFDAIMGVNVKGVWLCMKYQLPLLLAQGGGAIVNTASVAGLGAAPKMSIYSASKHAVIGLTKSAAIEYAKKGIRVNAVCPAVIDTDMFRRAYQADPRKAEFAAAMHPVGRIGKVEEIASAVLYLCSDGAAFTTGHCLTVDGGATAI | – | – | oxidation of 4-octanol as measured by NADH production ([2]; in the presence of NAD+, FIG. 30A): catalyzes the oxidation of 4-octanol |
| Atu3026: alcohol dehydrogenase isolated from Agrobacterium tumefaciens C58, polypeptide SEQ ID NO: 92 (protein, Agrobacterium tumefaciens C58) MQRFTNRTIVVAGAGRDIGRACAIRFAQEGANVVLTYNGAAEGAATAVAEIEKLGRSALAIKADLTNAAEVEAAISAAADKFGEIHGLVHVAGGLIARKTIAEMDEAFWHQVLDVNLTSLFLTAKTALPKMAKGGAIVTFSSQAGRDGGGPGALAYATSKGAVMTFTRGLAKEVGPKIRVNAVCPGMISTTFHDTFTKPEVRERVAGATSLKREGSSEDVAGLVAFLASDDAAYVTGACYDINGGVLFS | – | – | DEHU hydrogenase and mannuronate hydrogenase reactions in pyruvate formation from alginate [3]: capable of catalyzing both DEHU hydrogenase and mannuronate hydrogenase reactions |
| ADH3: alcohol dehydrogenase isolated from Agrobacterium tumefaciens C58, polypeptide SEQ ID NO: 74 (protein, Agrobacterium tumefaciens C58) MTKTMKAAVVRAFGKPLTIEEVAIPDPGPGEILINYKATGVCHTDLHAATGDWPVKPNPPFIPGHEGAGYVAKIGAGVTGIKEGDRAGTPWLYTACGCCIPCRTGWETLCPSQKNSGYSVNGSFAEYGLADPKFVGRLPDNLDFGPAAPVLCAGVTVYKGLKETEVRPGEWVVISGIGGLGHMAVQYAKAMGMHVVAADIFDDKLALAKKLGADVVVNGRAPDAVEQVQKATGGVHGALVTAVSPKAMEQAYGFLRSKGTMALVGLPPGFISIPVFDTVLKRITVRGSIVGTRQDLEEALTFAGEGKVAAHFSWDKLENINDIFHRMEEGKIDGRIVVDLAA | – | significant mannuronate hydrogenase activity | – |
| 2ADH-8: secondary alcohol dehydrogenase isolated from Pseudomonas putida KT2440, SEQ ID NO: 124 (protein, Pseudomonas putida KT2440) MSLQGKVALVTGASRGIGQAIALELGRQGATVIGTATSASGAERIAATLKEHGITGTGMELNVTSAESVEAVLAAIGEQFGAPAILVNNAGITRDNLMLRMKDDEWFDVIDTNLNSLYRLSKGVLRGMTKARWGRIISIGSVVGAMGNAGQANYAAAKAGLEGFSRALAREVGSRGITVNSVTPGFIDTDMTRELPEAQREALQTQIPLGRLGQADEIAKVVSFLASDGAAYVTGATVPVNGGMYM | catalyze the oxidation of 4-octanol | – | – |
| ADH9: alcohol dehydrogenase isolated from Agrobacterium tumefaciens C58, polypeptide SEQ ID NO: 86 (protein, Agrobacterium tumefaciens C58) MKAIVAHGAKDVRIEDRPEEKPGPGEVRLRLARGGICGSDLHYYNHGGFGAVRLREPMVLGHEVSAVIEELGEGVEGLKIGGLVAVSPSRPCRTCRFCQEGLHNQCLNMRFYGSAMPFPHIQGAFREILVADALQCVPADGLSAGEAAMAEPLAVTLHATRRAGDLLGKRVLVTGCGPIGILSILAARRAGAAEIVATDLSDFTLGKAREAGADRVINSKDEPDALAAYGANKGTFDILYECSGAAVALAGGITALRPRGIIVQLGLGGDMSLPMMAITAKELDLRGSFRFHEEFATGVELMRKGLIDVKPFITQTVDLADAISAFEFASDRSRAMKVQIAFS | – | significant mannuronate hydrogenase activity | – |
| 2ADH-5: secondary alcohol dehydrogenase isolated from Pseudomonas putida KT2440, SEQ ID NO: 118 (protein, Pseudomonas putida KT2440) MSKQLTLEGKVALVQGGSRGIGAAIVRRLAREGAQVAFTYVSSAGPAEELAREITENGGKALALRADSADAAAVQLAVDDTEKALGRLDILVNNAGVLAVAPVTEFDLADFDHMLAVNVRSVFVASQAAARYMGQGGRIINIGSTNAERMPFAGGAPYAMSKSALVGLTRGMARDLGPQGITVNNVQPGPVDTDMNPASGEFAESLIPLMAIGRYGEPEEIASFVAYLAGPEAGYITGASLTVDGGFAA | catalyze the oxidation of 4-octanol | – | – |
| ADH2: alcohol dehydrogenase isolated from Agrobacterium tumefaciens C58, polypeptide SEQ ID NO: 72 (protein, Agrobacterium tumefaciens C58) MAIARGYAATDASKPLTPFTFERREPNDDDVVIDIKYAGICHSDIHTVRNEWHNAVYPIVPGHEIAGVVRAVGSKVTRFKVGDHVGVGCFVDSCVGCATRDVDNEQYMPGLVQTYNSVERDGKSATQGGYSDHIVVREDYVLSIPDNLPLDASAPLLCAGITLYSPLQHWNAGPGKKVAIVGMGGLGHMGVKIGSAMGADITVLSQTLSKKEDGLKLGAKEYYATSDASTFEKLAGTFDLILCTVSAEIDWNAYLNLLKVNGTMVLLGVPEHAIPVHAFSVIPARRSLAGSMIGSIKETQEMLDFCGKHDIVSEIETIGIKDVNEAYERVLKSDVRYRFVIDMASLDA | – | – | DEHU hydrogenase activity [1]: significant DEHU hydrogenase activity |
| ADH4: alcohol dehydrogenase isolated from Agrobacterium tumefaciens C58, polypeptide SEQ ID NO: 76 (protein, Agrobacterium tumefaciens C58) MTGANQPWEVQEVPVPKAEPGLVLVKIHASGMCYTDVWATQGAGGDIYPQTPGHEVVGEIIEVGAGVHTRKVGDRVGTTWVQSSCGRCSYCRQNRPLTGQTAMNCDSPRTTGFATQGGHAEYIAISAEGTVLLPDGLDYTDAAPMMCAGYTTWSGLRDAEPKPGDRIAVLGIGGLGHVAVQFSKALGFETIAITHSPDKHKLATDLGADIVVADGKELLEAGGADVLLVTTNDFDTAEKAMAGVRPDGRIVLCALDFSKPFSIPSDGKPFHMMRQRVVGSTHGGQHYLAEILDLAAKGKVKPIVETFALEQATEAYERLSTGKMRFRGVFLPHGA | – | significant mannuronate hydrogenase activity | – |
